Test results as given in PMC3673036 (Bioscience Reports, 2013).
Numbering of substitutions follows the chain as printed. In names and notes the source's numbering stands. Blank lines part the entries; values can stand above or below the molecule they belong to.

How the values were obtained:
[1] = target: T1, EphB2 (Homo sapiens, UniProt P29323); assay: ADP-Glo luminescent kinase assay; assay type: biochemical; details: ATP and poly-(Glu:Tyr) […] at Km of each kinase; MgCl2, Hepes pH […]°C, […] min, […] DMSO; unreliable: below assay tight binding limit of about […]
T1 construct: kinase domain 604-898 without juxtamembrane region; N-terminal His6-TEV tag cleaved (GSS left); E. coli BL21 Star (DE3), PTP1B co-expressed; unphosphorylated; synthetic codon-optimized gene
T1 sequence (P29323 604-898): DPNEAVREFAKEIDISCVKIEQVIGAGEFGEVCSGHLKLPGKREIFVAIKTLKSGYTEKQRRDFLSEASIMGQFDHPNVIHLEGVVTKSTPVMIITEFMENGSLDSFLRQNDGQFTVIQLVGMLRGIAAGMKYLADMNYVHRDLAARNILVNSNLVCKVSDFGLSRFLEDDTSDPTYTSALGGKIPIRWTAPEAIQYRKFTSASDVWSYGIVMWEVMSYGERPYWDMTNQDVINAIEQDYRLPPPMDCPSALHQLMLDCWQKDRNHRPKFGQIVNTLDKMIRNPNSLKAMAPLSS
Text: ADP-Glo luminescent kinase assay on EphB2

[2] = target: T2, EphB1 (Homo sapiens, UniProt P54762); assay: ADP-Glo luminescent kinase assay; assay type: biochemical; details: ATP and poly-(Glu:Tyr) […] at Km of each kinase; MgCl2, Hepes pH […]°C, […] min, […] DMSO; unreliable: below assay tight binding limit of about […]
T2 construct: kinase domain 602-896 without juxtamembrane region; N-terminal His6-TEV tag cleaved (GSS left); E. coli BL21 Star (DE3), PTP1B co-expressed; unphosphorylated; synthetic codon-optimized gene
T2 sequence (P54762 602-896): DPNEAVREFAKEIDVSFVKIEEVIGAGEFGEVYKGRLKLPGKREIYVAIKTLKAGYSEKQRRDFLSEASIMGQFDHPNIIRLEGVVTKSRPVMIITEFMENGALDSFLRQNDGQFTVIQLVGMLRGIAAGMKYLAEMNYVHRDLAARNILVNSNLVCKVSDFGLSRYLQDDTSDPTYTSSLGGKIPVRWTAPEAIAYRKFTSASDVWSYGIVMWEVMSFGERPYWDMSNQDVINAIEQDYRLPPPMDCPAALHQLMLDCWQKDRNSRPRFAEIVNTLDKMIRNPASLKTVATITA
Text: ADP-Glo luminescent kinase assay on EphB1

[3] = target: T1, EphB2; assay: ADP-Glo luminescent kinase assay, Michaelis-Menten fit; assay type: biochemical; details: […] poly-(Glu:Tyr) […], MgCl2, Hepes pH […]°C; read-out: Km ATP
Text: ADP-Glo luminescent kinase assay, Michaelis-Menten fit on EphB2

[4] = substrate: Nc1ncnc2c1ncn2[C@@H]1O[C@H](COP(=O)(O)OP(=O)(O)OP(=O)(O)O)[C@@H](O)[C@H]1O; assay: as above; assay type: biochemical, Homo sapiens; details: […] poly-(Glu:Tyr) […], MgCl2, Hepes pH […]
Text: ADP-Glo luminescent kinase assay, Michaelis-Menten fit on EphB3

[5] = substrate: Nc1ncnc2c1ncn2[C@@H]1O[C@H](COP(=O)(O)OP(=O)(O)OP(=O)(O)O)[C@@H](O)[C@H]1O; assay: as above; assay type: biochemical, Homo sapiens; details: […] poly-(Glu:Tyr) […], MgCl2, Hepes pH […]; remark: listed apart in the source
Text: ADP-Glo luminescent kinase assay, Michaelis-Menten fit on EphB4

[6] = substrate: Nc1ncnc2c1ncn2[C@@H]1O[C@H](COP(=O)(O)OP(=O)(O)OP(=O)(O)O)[C@@H](O)[C@H]1O; assay: as above; assay type: biochemical, Homo sapiens; details: […] poly-(Glu:Tyr) […], MgCl2, Hepes pH […]; remark: listed apart in the source
Text: ADP-Glo luminescent kinase assay, Michaelis-Menten fit on EphB1

EphB2 / IC50 [1]: 7 nM
EphB1 / IC50 [2]: 10 nM
Molecule: Cc1nc(Nc2ncc(C(=O)Nc3c(C)cccc3Cl)s2)cc(N2CCN(CCO)CC2)n1 [Dasatinib]

Km [3]: 751 ± 80 µM
Molecule: Nc1ncnc2c1ncn2[C@@H]1O[C@H](COP(=O)(O)OP(=O)(O)OP(=O)(O)O)[C@@H](O)[C@H]1O [ATP]

B1: EphB3 (Homo sapiens) (protein)
chain: DPNEAVREFAKEIDVSCVKIEEVIGAGEFGEVCRGRLKQPGRREVFVAIKTLKVGYTERQRRDFLSEASIMGQFDHPNIIRLEGVVTKSRPVMILTEFMENCALDSFLRLNDGQFTVIQLVGMLRGIAAGMKYLSEMNYVHRDLAARNILVNSNLVCKVSDFGLSRFLEDDPSDPTYTSSLGGKIPIRWTAPEAIAYRKFTSASDVWSYGIVMWEVMSYGERPYWDMSNQDVINAVEQDYRLPPPMDCPTALHQLMLDCWVRDRNLRPKFSQIVNTLDKLIRNAASLKVIASAQS
notes: kinase domain 616-910 without juxtamembrane region; N-terminal His6-TEV tag cleaved (GSS left); E. coli BL21 Star (DE3), PTP1B co-expressed; unphosphorylated; synthetic codon-optimized gene
Km [4]: 506 ± 48 µM
kcat [4]: 0.43 ± 0.01 s⁻¹

B2: EphB3 (Homo sapiens; C717G) (protein)
chain: B1 chain with C102G
notes: as for B1
Km [4]: 659 ± 67 µM
kcat [4]: 0.86 ± 0.03 s⁻¹

B3: EphB4 (Homo sapiens) (protein)
chain: DPNEAVREFAKEIDVSYVKIEEVIGAGEFGEVCRGRLKAPGKKESCVAIKTLKGGYTERQRREFLSEASIMGQFEHPNIIRLEGVVTNSMPVMILTEFMENGALDSFLRLNDGQFTVIQLVGMLRGIASGMRYLAEMSYVHRDLAARNILVNSNLVCKVSDFGLSRFLEENSSDPTYTSSLGGKIPIRWTAPEAIAFRKFTSASDAWSYGIVMWEVMSFGERPYWDMSNQDVINAIEQDYRLPPPPDCPTSLHQLMLDCWQKDRNARPRFPQVVSALDKMIRNPASLKIVARENG
notes: kinase domain 598-892 without juxtamembrane region; N-terminal His6-TEV tag cleaved (GSS left); E. coli BL21 Star (DE3), PTP1B and GroES/GroEL co-expressed; unphosphorylated; synthetic codon-optimized gene
Km [5]: 497 ± 39 µM
kcat [5]: 0.51 ± 0.01 s⁻¹

B4: EphB1 (Homo sapiens) (protein)
chain: T2 sequence (P54762 602-896)
notes: kinase domain 602-896 without juxtamembrane region; N-terminal His6-TEV tag cleaved (GSS left); E. coli BL21 Star (DE3), PTP1B co-expressed; unphosphorylated; synthetic codon-optimized gene
Km [6]: 555 ± 36 µM
kcat [6]: 0.80 ± 0.02 s⁻¹
